This passage reports K0.5 results from PMC2807175.

Substrate in the data set: OC[C@H]1O[C@@](CO)(O[C@H]2O[C@H](CO)[C@@H](O)[C@H](O)[C@H]2O)[C@@H](O)[C@@H]1O
Kind of data set: cells, lysate or membranes. To be noted: pH 5.6, Na Ringer, membrane potential -117 mV, H+ symport.

B1: OsSUT1 (Oryza sativa Japonica Group) (protein)
chain: MARGSGAGGGGGGGGGGLELSVGVGGGGGARGGGGGEAAAAVETAAPISLGRLILSGMVAGGVQYGWALQLSLLTPYVQTLGLSHALTSFMWLCGPIAGMVVQPCVGLYSDRCTSKWGRRRPYILTGCVLICLAVVVIGFSADIGYAMGDTKEDCSVYHGSRWHAAIVYVLGFWLLDFSNNTVQGPARALMADLSGRHGPGTANSIFCSWMAMGNILGYSSGSTNNWHKWFPFLKTRACCEACANLKGAFLVAVIFLSLCLVITLIFAKEVPFKGNAALPTKSNEPAEPEGTGPLAVLKGFRNLPTGMPSVLIVTGLTWLSWFPFILYDTDWMGREIYHGDPKGTDPQIEAFNQGVRAGAFGLLLNSIVLGFSSFLIEPMCRKVGPRVVWVTSNFLVCIAMAATALISFWSLKDFHGTVQKAITADKSIKAVCLVLFAFLGVPLAVLYSVPFAVTAQLAATRGGGQGLCTGVLNISIVIPQVVIALGAGPWDELFGKGNIPAFGLASGFALIGGVAGIFLLPKISKRQFRSVSMGGGH
Take B1: the K0.5 came to 7.50 mM.

B2: OsSUT5 (Oryza sativa Japonica Group) (protein)
chain: MEEGRRGDREGKSAAGWTALSTTKTTLEEKRRLQANGSVGGDAGTSGFRRIVRLFFACMVAGGIQYGWALQLSLLSPYSQTLGISHSYVSLTWICGPIAGFVVQPIVGYYSDRCTMKMGRRRPFILVGCLIICISVMIIGFSADIGRHLGDTKEHCSTYTGPRWSAAMVYIVGFWFLDFANNTVQGPARAMMADLSAGHHGPNVGQSIFSLWMAIGSVLGYLSGANGKWHEWFPWLKTAACCDACANLKGAFFTAVLLIVVSMTVTMYLADEMPLDKQDVDTSGGGGCAVFVDLFKSLRNLPPAMFKVLAVTAVTWLSWFPFIQYNTDWMGREIYHGEPQGTAAKADVYDAGVREGAMGLLFCSVALGVTSFVIPKLCRRLTSKVVWSISNFLVFALMAVMVAVGMVSMRGYRPSLAAGLTGPDPTLKAVALVVFALIGIPQAVLFSVPWAVASEVTAEEGGGQGLAIGVLNIAIVVPQLVIALTAGPIDGAFNKGNTPAFGIGGAFAFICGVLALIWLPKTRGVSNAAVVAGGH
As to B2, the K0.5 is listed as 2.32 mM.
